Results reported in patent US20100189722A1 (Boehringer Ingelheim, published 2010).

T1: CD37 antigen (cellular CD37 on Ramos Burkitt lymphoma cells; also on RPMI 8226 multiple myeloma cells) (human, UniProt P11049 1-281)
T1 sequence (looked up): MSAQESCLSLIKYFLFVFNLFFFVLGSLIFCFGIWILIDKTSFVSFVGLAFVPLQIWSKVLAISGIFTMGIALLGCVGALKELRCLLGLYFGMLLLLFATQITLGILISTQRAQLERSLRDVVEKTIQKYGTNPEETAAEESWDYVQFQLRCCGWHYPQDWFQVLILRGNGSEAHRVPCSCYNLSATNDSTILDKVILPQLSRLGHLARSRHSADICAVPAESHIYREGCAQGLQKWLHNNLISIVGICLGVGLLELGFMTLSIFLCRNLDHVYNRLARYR


Target: T1, CD37 antigen (cellular CD37 on Ramos …)
Assay: cell-based or functional assay

ADCC EC50 on RPMI 8226 multiple myeloma cells | Binder
~0.025 µg/mL | Fc-engineered humanized anti-CD37 antibody B2 (S239D/I332E) (antibody, human IgG1, kappa, V domains shown) VH: AVQLVQSGAEVKKPGSSVKVSCKASGYSFTGYNMNWVRQAPGQGLEWMGNIDPYYGGTTYNRKFKGRVTLTVDKSSSTAYMELSSLRSEDTAVYYCARSVGPMDYWGQGTLVTVSS VL: DIQMTQSPSSLSASVGDRVTITCRTSENVYSYLAWYQQKPGKAPKLLVSFAKTLAEGVPSRFSGSGSGTDFTLTISSLQPEDFATYFCQHHSDNPWTFGQGTKVEIKR
~0.025 µg/mL | Fc-engineered chimeric anti-CD37 antibody A2 (S239D/I332E) (antibody, human IgG1, kappa) heavy: not shown light: DIQMTQSPASLSASVGETVTITCRTSENVYSYLAWYQQKQGKSPQLLVSFAKTLAEGVPSRFSGSGSGTQFSLKISSLQPEDSGSYFCQHHSDNPWTFGGGTELEIKRTVAAPSVFIFPPSDEQLKSGTASVVCLLNNFYPREAKVQWKVDNALQSGNSQESVTEQDSKDSTYSLSSTLTLSKADYEKHKVYACEVTHQGLSSPVTKSFNRGEC
